What was measured:
hENG(26-257)-hFc = biological target: T1, hENG(26-257)-hFc (human, UniProt P17813 26-257); assay: SPR, captured hENG-hFc, soluble BMP9; '-' = Binding undetectable
T1 construct: HEK 293, purified; not shown: linker and human IgG1 Fc domain
T1 sequence: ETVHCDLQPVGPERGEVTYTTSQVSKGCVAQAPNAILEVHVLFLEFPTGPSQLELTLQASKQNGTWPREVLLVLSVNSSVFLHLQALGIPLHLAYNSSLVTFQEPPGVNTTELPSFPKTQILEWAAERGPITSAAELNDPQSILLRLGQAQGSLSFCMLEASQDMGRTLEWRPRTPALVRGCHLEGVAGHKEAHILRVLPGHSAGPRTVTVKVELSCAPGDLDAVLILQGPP
Experimental: (§1) SPR methodology was used to screen these hENG-hFc protein variants for high-affinity binding to human BMP9 and BMP10. In these experiments, captured hENG-hFc proteins were exposed to soluble BMP9 or BMP10 at 100 nM each.

hENG(360-581)-hFc [1] = biological target: T2, hENG(360-581)-hFc (human, UniProt P17813 360-581); assay: as above
T2 construct: HEK 293, purified; not shown: linker and human IgG1 Fc domain
T2 sequence: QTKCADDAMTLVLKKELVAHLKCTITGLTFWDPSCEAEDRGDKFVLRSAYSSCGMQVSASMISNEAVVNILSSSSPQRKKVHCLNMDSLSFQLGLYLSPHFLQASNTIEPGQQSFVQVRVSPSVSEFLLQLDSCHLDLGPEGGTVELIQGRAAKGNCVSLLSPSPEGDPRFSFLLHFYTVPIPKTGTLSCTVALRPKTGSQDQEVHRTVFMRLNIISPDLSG
Experimental: as §1

hENG(61-346)-hFc = biological target: T3, hENG(61-346)-hFc (human, UniProt P17813 61-346); assay: as above
T3 construct: HEK 293, purified; not shown: linker and human IgG1 Fc domain
T3 sequence: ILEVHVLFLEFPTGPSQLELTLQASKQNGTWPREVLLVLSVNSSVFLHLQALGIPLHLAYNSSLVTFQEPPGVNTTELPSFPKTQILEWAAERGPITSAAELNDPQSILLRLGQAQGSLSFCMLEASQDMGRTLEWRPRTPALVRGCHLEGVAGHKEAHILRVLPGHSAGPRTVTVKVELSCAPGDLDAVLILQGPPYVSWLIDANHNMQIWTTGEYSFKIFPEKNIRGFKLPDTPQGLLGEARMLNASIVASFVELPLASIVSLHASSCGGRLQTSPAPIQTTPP
Experimental: as §1

hENG(26-332)-hFc [2] = biological target: T4, hENG(26-332)-hFc (human, UniProt P17813 26-332); assay: as above
T4 construct: HEK 293, purified; not shown: linker and human IgG1 Fc domain
T4 sequence: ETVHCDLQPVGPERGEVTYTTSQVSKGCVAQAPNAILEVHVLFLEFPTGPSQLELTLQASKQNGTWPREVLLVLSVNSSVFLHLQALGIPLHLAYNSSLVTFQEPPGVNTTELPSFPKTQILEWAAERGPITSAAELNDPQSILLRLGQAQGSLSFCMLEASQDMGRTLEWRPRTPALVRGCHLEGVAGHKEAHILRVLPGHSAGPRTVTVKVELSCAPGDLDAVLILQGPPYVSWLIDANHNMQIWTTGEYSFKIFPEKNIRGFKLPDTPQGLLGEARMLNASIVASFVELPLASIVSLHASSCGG
Experimental: as §1

hENG(133-346)-hFc = biological target: T5, hENG(133-346)-hFc (human, UniProt P17813 133-346); assay: as above
T5 construct: HEK 293, purified; not shown: linker and human IgG1 Fc domain
T5 sequence: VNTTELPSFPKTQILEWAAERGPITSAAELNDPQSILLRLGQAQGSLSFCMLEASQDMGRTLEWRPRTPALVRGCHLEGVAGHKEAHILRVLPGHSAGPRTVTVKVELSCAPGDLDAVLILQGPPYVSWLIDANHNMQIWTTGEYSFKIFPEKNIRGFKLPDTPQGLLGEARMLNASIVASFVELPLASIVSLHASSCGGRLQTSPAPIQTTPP
Experimental: as §1

hENG(129-346)-hFc [3] = biological target: T6, hENG(129-346)-hFc (human, UniProt P17813 129-346); assay: as above
T6 construct: HEK 293, purified; not shown: linker and human IgG1 Fc domain
T6 sequence: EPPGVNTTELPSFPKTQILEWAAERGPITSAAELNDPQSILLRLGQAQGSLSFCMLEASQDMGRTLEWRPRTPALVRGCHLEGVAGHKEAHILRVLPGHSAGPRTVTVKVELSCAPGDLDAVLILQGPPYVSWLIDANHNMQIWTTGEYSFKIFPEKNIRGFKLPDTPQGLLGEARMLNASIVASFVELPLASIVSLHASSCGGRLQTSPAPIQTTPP
Experimental: as §1

hENG(26-329)-hFc = biological target: T7, hENG(26-329)-hFc (human, UniProt P17813 26-329); assay: as above
T7 construct: HEK 293, purified; not shown: linker and human IgG1 Fc domain
T7 sequence: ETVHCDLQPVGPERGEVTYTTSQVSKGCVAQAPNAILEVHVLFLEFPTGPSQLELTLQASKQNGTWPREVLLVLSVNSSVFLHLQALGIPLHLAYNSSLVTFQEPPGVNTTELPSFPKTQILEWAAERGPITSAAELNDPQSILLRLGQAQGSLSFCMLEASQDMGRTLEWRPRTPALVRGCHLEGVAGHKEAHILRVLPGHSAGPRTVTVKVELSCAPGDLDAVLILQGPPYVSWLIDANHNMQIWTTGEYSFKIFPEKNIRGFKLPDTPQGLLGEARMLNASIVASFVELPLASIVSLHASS
Experimental: as §1

hENG(458-586)-hFc = biological target: T8, hENG(458-586)-hFc (human, UniProt P17813 458-586); assay: as above
T8 construct: Expressed in COS cells, not purified; not shown: linker and human IgG1 Fc domain
T8 sequence: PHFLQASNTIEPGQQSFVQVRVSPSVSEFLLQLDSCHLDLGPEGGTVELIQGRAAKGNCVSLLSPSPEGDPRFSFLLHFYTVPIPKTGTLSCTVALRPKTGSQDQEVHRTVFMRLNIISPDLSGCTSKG
Experimental: as §1

hENG(360-581)-hFc [4] = biological target: T2, hENG(360-581)-hFc; assay: SPR, captured hENG-hFc, soluble BMP10; '-' = Binding undetectable
Experimental: as §1

hENG(26-332)-hFc [5] = biological target: T4, hENG(26-332)-hFc; assay: as above
Experimental: as §1

hENG(129-346)-hFc [6] = biological target: T6, hENG(129-346)-hFc; assay: as above
Experimental: as §1

Measured: binding result

B1: BMP9 (ligand, human, UniProt Q9UK05 320-429, looked up)
chain: SAGAGSHCQKTSLRVNFEDIGWDSWIIAPKEYEAYECKGGCFFPLADDVTPTKHAIVQTLVHLKFPTKVGKACCVPTKLSPISVLYKDDMGVPTLKYHYEGMSVAECGCR
notes: also called hBMP-9; hBMP9
not listed: hENG(360-581)-hFc [4] | hENG(26-332)-hFc [5] | hENG(129-346)-hFc [6]
no binding (tested: 100 nM): all other assays above

B2: BMP10 (ligand)
chain: NAKGNYCKRTPLYIDFKEIGWDSWIIAPPGYEAYECRGVCNYPLAEHLTPTKHAIIQALVHLKNSQKASKACCVPTKLEPISILYLDKGVVTYKFKYEGMAVSECGCR
notes: also called hBMP-10; hBMP10
no binding (tested: 100 nM): hENG(360-581)-hFc [4] | hENG(26-332)-hFc [5] | hENG(129-346)-hFc [6]

— patent US20200087367A1 (ACCELERON PHARMA, published 2020)
